Measurements published in paper PMC8724787.

How the values were obtained:
[1] = biological target: DENV1 strain Hawaii envelope (E) protein on virions (Dengue virus 1 (strain Hawaii)); experiment: ELISA; apparent
[2] = biological target: K^L66A C10 mAb mutant (IgG1) (human); experiment: BLI
[3] = biological target: DENV3 A257C (sE)2, disulfide engineered mutant dimer; experiment: BLI (steady state binding)
[4] = biological target: DENV4 A259C (sE)2, disulfide engineered mutant dimer; experiment: BLI (steady state binding)
[5] = biological target: ZIKV-H/PF/2013 sE protein (aa 1-404); experiment: BLI (steady state binding)
[6] = biological target: DENV2 A259C (sE)2, disulfide engineered mutant dimer; experiment: BLI (steady state binding)
[7] = biological target: DENV3 strain H87 envelope (E) protein on virions (Dengue virus 3 (strain H87)); experiment: ELISA
[8] = biological target: DENV4 strain 1-0093 envelope (E) protein on virions (Dengue virus 4 (strain 1-0093)); experiment: ELISA
[9] = biological target: DENV2 strain 16681 envelope (E) protein on virions (Dengue virus 2 (strain 16681)); experiment: ELISA
[10] = biological target: DENV3-paH881 sE protein (aa 1-393) (Dengue virus 3 (strain paH881)); experiment: crystal structure
[11] = biological target: DENV3-paH881 sE protein (aa 1-393) (Dengue virus 3 (strain paH881)); experiment: crystal structure; unbound sE
[12] = biological target: DENV4_Burma/63632/1976 sE protein (aa 1-395) (Dengue virus 4 (strain Burma/63632/1976)); experiment: crystal structure
[13] = biological target: ZIKV-H/PF/2013 sE protein (aa 1-404) (Zika virus (strain H/PF/2013)); experiment: SEC-MALS; Superdex 200 10/300 GL; Tris 50 mM pH 8.0, NaCl 500 mM; about 150 ug protein; proteins alone and in complex
[14] = biological target: ZIKV-H/PF/2013 sE protein (aa 1-404) (Zika virus (strain H/PF/2013)); experiment: crystal structure
[15] = biological target: DENV1-FGA/89 sE protein (aa 1-395) (Dengue virus 1 (strain FGA/89)); experiment: crystal structure
[16] = biological target: DENV1-FGA/89 sE protein (aa 1-395) (Dengue virus 1 (strain FGA/89)); experiment: crystal structure; unbound sE

C10 bivalent F(ab')2
Kd [1]: 0.00384 µM

DENV3 A257C (sE)2, disulfide engineered mutant dimer (domain or fragment)
drop in affinity against wild-type C10 [2]: > 1 log

C10 intact bivalent IgG1 (human monoclonal antibody EDE1 C10) L:K66A
Kd [3]: 0.223 µM
Kd [4]: 1.37 µM
Kd [5]: 0.0403 µM
Kd [6]: 0.259 µM

DENV2 A259C (sE)2, disulfide engineered mutant dimer (domain or fragment)
drop in affinity against wild-type C10 [2]: > 1 log

C10 monovalent antigen binding fragment (Fab)
fold difference in EC50 for virion binding, bivalent versus monovalent [7]: 2 logs
fold difference in EC50 for virion binding, bivalent versus monovalent [8]: 10 fold
fold difference in EC50 for virion binding, bivalent versus monovalent [9]: 10 fold

DENV3-paH881 sE protein (aa 1-393) (domain or fragment)
stoichiometry N [10]: 2
stoichiometry N [11]: 2

DENV4_Burma/63632/1976 sE protein (aa 1-395) (domain or fragment)
stoichiometry N [12]: 2

ZIKV-H/PF/2013 sE protein (aa 1-404) (domain or fragment)
stoichiometry N [13]: 2
stoichiometry N [14]: 2

DENV4 A259C (sE)2, disulfide engineered mutant dimer (domain or fragment)
drop in affinity against wild-type C10 [2]: > 1 log

DENV1-FGA/89 sE protein (aa 1-395) (domain or fragment)
stoichiometry N [15]: 2
stoichiometry N [16]: 2
